Measured values as given in publication PMC4091638.

B1: Mdm34-SOS (IFP1.4 fused to the cytosolic face of Mdm34), P53083 1-459 (natural protein)
chain: MSFRFNEAVFGDNSFNERIREKLSTALNSPSKKKLDILKSGIKVQKVDFPTIPQLEILDLDIITQPKSLAKGICKISCKDAMLRIQTVIESNLLLINEQDTPSFTMPQLINNGSFTIPITMTFSSIELEAITNIFVKNPGIGISFNDVDLDFKFDCSVKILQSTIERRLKESMHVVFKDVLPSLIFNTSQNWFTNRGESTSTIPGKREHHHQQTTMSRNVILDGSDFQELSPINMLRLSSIVSSRSTLSLHSTVMNSLSAIPGCLERQNLYRFISRMPSLNNYYSSQSFPQPKSSTVSSKQLVKPFYCSHNLLPKTVLDSSQYDLATITKIQSRLFDRSNSNDDNAKPRRRKIKCKKTRTPSNLQSQGEQAVDDSTAIETVTSTPVQTPIPELEEQSPPYLKTTVSIRDKYVIPEKISLNLDSKKDTSKKKPFYFIGLNSQEPSNNWKWGMEDSPPPYH
B2: SOS-Mdm34 (IFP1.4 fused to the N-terminus of Mdm34, facing the intermembrane space), P53083 1-459 (natural protein)
chain: B1 chain

Target: T1, Mmm1-SOG (miniSOG fused to the cytosolic face of Mmm1) (S. cerevisiae), P41800
T1 chain: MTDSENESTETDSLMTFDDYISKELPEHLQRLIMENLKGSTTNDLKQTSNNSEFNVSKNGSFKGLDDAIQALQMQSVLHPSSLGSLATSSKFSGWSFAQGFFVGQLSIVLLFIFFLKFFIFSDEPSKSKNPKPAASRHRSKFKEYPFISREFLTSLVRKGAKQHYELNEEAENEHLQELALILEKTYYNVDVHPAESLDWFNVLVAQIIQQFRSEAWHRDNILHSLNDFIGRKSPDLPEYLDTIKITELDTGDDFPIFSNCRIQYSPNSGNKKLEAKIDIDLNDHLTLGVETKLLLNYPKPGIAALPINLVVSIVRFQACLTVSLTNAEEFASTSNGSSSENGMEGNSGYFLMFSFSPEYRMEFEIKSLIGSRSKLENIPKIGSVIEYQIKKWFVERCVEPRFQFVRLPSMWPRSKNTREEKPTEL
Assay: singlet oxygen triplet energy transfer
Settings: remark: other sources report otherwise

Binder	STET signal [s⁻¹]
B1	0.082
B2	0.052
